Assay results from patent US20220064310A1 (DEVELOPMENT CENTER FOR BIOTECHNOLOGY, published 2022).

Columns and labels:
[1] = molecular target: T1, CSF-1R-ECD-human Fc (in house) (human, UniProt P07333 20-512); experiment: blocking ELISA: coated CSF-1R-ECD-human Fc, AB21 titrated together with M-CSF, bound CSF-1 detected with biotinylated anti-CSF-1 BAF216 and streptavidin-HRP, Abs450
T1 construct: In-house fusion; also called CSF-1R-ECD-hFc; CSF1R-ECD-hFc; not shown: human Fc
Procedure: CSF-1R-ECD-human Fe (in house) is diluted to 1.2 μg/ml with coating buffer and coating overnight at 4° C. After incubation step, plates were washed 1 time with the wash buffer and blocking with 1% casein blocking buffer at room temperature for 2 hours. Different dilutions of purified AB21 antibodies were incubated with 250 ng/ml of M-CSF (R&D system, 216-GMP-025) in dilution buffer at 37° C. for 1 hour. After 5 times of wash, the ligand which bound to the receptor can be detected by 50 ng/ml biotinylated […] clone BAF216 (R&D Systems, UK) and 1:5000 diluted streptavidin HRP (Roche Diagnostics GmbH, DE, Cat. No. 11089153001) after 1 hour incubation. Anti CSF-1R SC 2-4A5 (Santa Cruz Biotechnology, US), which inhibits the ligand-receptor interaction, was used as positive control. Plates were developed with TMB Microwell Peroxidase Substrate (KPL, 95059-154). Absorbance was measured at 450 nm. A decrease of absorbance is found, if the anti-CST-1R antibody causes a release of CSF-1 from the dimeric complex. […] Therefore, antibodies of the invention can be used to prevent or treat diseases mediated by CSF-1R or CSF-1.

[2] = molecular target: T2, CSF-1R ECD variant 228-233A (human, UniProt P07333 20-512); experiment: ELISA, coated CSF-1R ECD variant 228-233A, AB21 titrated, Abs450
T2 chain: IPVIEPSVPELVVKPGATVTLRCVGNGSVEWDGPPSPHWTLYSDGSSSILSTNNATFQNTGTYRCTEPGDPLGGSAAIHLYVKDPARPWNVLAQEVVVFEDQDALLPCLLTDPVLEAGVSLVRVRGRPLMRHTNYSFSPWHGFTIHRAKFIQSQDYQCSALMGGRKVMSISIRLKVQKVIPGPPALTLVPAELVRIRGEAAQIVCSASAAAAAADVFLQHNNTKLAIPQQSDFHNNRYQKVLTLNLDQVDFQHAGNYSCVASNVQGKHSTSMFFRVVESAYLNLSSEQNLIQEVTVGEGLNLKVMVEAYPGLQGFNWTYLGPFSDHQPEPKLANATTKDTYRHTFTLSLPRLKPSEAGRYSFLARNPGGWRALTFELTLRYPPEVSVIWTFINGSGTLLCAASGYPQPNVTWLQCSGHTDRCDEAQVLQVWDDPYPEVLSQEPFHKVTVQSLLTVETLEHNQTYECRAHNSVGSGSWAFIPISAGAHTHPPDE
Procedure: (§1) One hundred (100) ng of human CSF-1R-Fc protein was coated on a 96-well ELISA plate, and the plate was further washed with PBS. Serial dilutions from 1×10⁻¹² to 1×10⁻⁸ M of AB21 mAb antibody were added to the plate, and the plate was incubated at 37° C. for 1 hour. A goat anti-mouse IgG conjugated with horseradish peroxidase (HRP) was added. After 1 hour, 3,3′,5,5′-Tetramethylbenzidine (TMB) was added and OD450 was read. Every study was repeated three times. Data were presented as mean SD. OD readings and concentrations of antibodies were used to make a multiple scatter plot using GraphPad Prism 5. The values were predicted by four parameter logistic fit.
To determine the binding epitopes of anti-CSF-1R antibody AB21, different CSF-1R extracellular domain variants that certain residues were replaced with alanine were constructed. […] After the variant proteins were purified, the binding affinity of AB21 mAb to these CSF-1R-ECD variants were analyzed by ELISA with the process described in Example 1.

[3] = molecular target: T3, human CSF-1R extracellular domain (CSF-1R-ECD) (human, UniProt P07333 20-512); experiment: Biacore T200 SPR, AB21 amine-coupled on the chip, CSF-1R-ECD injected at 0.3125 to 40 nM, 1:1 Langmuir fit
Text: (§2) To know the biding kinetics difference among individual antibodies, surface plasmon resonance (SPR) measurement with a BIAcore T200 (BIAcore, Inc., Piscataway, N.J.) was used as previously described (Karlsson & Fait, (1997) J. Immunol Methods 200:121-133). Carboxymethylated dextran biosensor chips (CMS, BIAcore Inc.) were activated with N-ethyl-N′-(3-dimethyl aminopropyl)-carbodiimide hydrochloride (EDC) and N-hydroxy succinimide (NHS) according to the supplier's instructions. AB21 mAb was diluted with 10 mM sodium acetate, pH 4.8, into 5 microgram/ml before injection at a flow rate of 20 micro L/minute to achieve approximately 100 response units (RU) of coupled protein followed by the injection of 1M ethanolamine to block unreacted groups. For kinetics measurements, two-fold serial dilutions of CSF-1R-ECD (0.3125 nM to 40 nM) were injected in HBS-P BIAcore running buffer provided by the manufacturer (BIAcore, Inc., Piscataway, N.J.) at 25° C. at a flow rate of 30 μL/min, and binding responses on the AB21 mAb were corrected by subtraction of responses on a blank flow cell. Association rates (kon or ka) and dissociation rates (koff or kd) were calculated using a simple one-to-one Langmuir binding model with separate fittings of kon and koff was used. (BIAcore™ Evaluation Software version 3.2).

[4] = molecular target: T4, human CSF-1R on the cell surface (THP-1 cells, endogenous); Ba/F3 cells stably expressing full-length human … (human, UniProt P07333 20-972); experiment: flow cytometry on THP-1 cells, FITC anti-mouse secondary antibody, readout CD115+ of single cells (%)
T4 construct: whole, on cells; also called Ba/F3-CSF-1R; Ba/F3-hCSF-1R
Procedure: In addition to binding CSF-1R ECD in vitro, antibodies of the invention can also bind CSF-1R on cells. In this example, THP-1 cells (human monocytic cell line, ATCC® TIB-202™) were stained in different concentrations of antibodies (AB21) from 6 to 0.625 μg/ml. After washing, cells were stained with secondary antibody FITC anti-mouse (1:500 dilution). Cells were fixed with a fixation buffer (FluroFix™ buffer, Biolegend) and analyzed with LSRFortessa FACS analyzer (Becton Dickson, US). […] The dose-dependent binding fits a sigmoid curve in the semi-log plot, indicating binding to a specific site (i.e., the antibody binds specifically to the target on the THP-1 cells).

[5] = molecular target: T5, human CSF-1R-Fc protein (M-CSF R/CD115 Fc chimera, R&D Systems) (human, UniProt P07333 20-512); experiment: ELISA, 100 ng human CSF-1R-Fc coated, four parameter logistic fit
T5 construct: Fc part of the bought chimera not given
Procedure: (§3) After binding and washing, the bound mAb AB21 was assessed using a horseradish peroxidase conjugated secondary antibody.
as §1

[6] = molecular target: T3, human CSF-1R extracellular domain …; experiment: SPR BIAcore T200, AB21 amine-coupled, CSF-1R-ECD 0.3125-40 nM as analyte, 25 C
Text: as §2

[7] = molecular target: T5, human CSF-1R-Fc protein (M-CSF R/CD115 …); experiment: ELISA, coated M-CSF R/CD115 Fc chimera (R&D), AB21 titrated, goat anti-mouse IgG-HRP, Abs450
Procedure: as §3, §1

mouse CSF-1R = molecular target: T6, mouse CSF-1R (mouse, UniProt P09581 20-511, limits assumed); experiment: not described
T6 sequence (looked up): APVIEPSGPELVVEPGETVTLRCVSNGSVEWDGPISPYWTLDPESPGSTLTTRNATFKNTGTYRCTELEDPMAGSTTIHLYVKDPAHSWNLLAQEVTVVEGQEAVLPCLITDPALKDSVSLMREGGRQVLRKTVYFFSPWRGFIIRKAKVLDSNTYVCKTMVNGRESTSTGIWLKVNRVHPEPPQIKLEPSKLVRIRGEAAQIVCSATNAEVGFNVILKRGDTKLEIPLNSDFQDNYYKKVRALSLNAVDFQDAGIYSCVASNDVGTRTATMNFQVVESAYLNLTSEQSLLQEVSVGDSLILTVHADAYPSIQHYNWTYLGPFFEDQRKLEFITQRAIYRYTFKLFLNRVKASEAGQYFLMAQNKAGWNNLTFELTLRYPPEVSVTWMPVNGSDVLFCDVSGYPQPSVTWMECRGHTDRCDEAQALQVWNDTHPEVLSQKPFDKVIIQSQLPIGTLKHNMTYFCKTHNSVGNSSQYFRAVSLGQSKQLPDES

B1: mouse hybridoma anti-human CSF-1R antibody mAb AB21 (antibody, V domains shown)
VH: EVQLQQSGPELEKPGASVKISCKASGYSFTGYNMNWVKQSNGKSLEWIGNIDPYYGGTTYNQKFKGKATLTVDKSSSTAYMQLKSLTSEDSAVYYCARRGDYSGSSYWYFDVWGAGTTVTVSS
VL: DIQMTQSSSYLSVSLGGRVTITCKASDHINNWLAWYQQKPGNAPRLLISGATSLETGVPSRFSGSGSGKDYTLSITSLQTEDVVTYYCQQYWSTPFTFGSGTKLEIK
notes: Mouse monoclonal antibody purified from hybridoma ascites (Protein A); also called AB21 mAb; mAb 21
- IC50 (read off the curve) [1]: ~2000 pM
- binding result [2]: no binding (tested: about 3e-8 M (log -7.5 on the axis))
- koff [3]: 4.9e-05 s⁻¹
- kon [3]: 399000 M⁻¹ s⁻¹
- EC50 [4]: 374 pM
- Kd [5]: 745 pM
- Kd [6]: 123 pM
- EC50 [7]: 745 pM
- binding result (mouse CSF-1R): no binding
